Measured values from CN114516919A (SUZHOU BAIDAI MEDICAL SCIENCE AND TECH LIMITED COMPANY, dated 2022).

Target: T1, 肾组织切片中的PLA2R1蛋白 (human, UniProt Q13018 21-1463)
T1 construct: whole, on cells
Experiment: immunohistochemistry on FFPE kidney tissue sections, DAB

T1 sequence (Q13018 21-1463): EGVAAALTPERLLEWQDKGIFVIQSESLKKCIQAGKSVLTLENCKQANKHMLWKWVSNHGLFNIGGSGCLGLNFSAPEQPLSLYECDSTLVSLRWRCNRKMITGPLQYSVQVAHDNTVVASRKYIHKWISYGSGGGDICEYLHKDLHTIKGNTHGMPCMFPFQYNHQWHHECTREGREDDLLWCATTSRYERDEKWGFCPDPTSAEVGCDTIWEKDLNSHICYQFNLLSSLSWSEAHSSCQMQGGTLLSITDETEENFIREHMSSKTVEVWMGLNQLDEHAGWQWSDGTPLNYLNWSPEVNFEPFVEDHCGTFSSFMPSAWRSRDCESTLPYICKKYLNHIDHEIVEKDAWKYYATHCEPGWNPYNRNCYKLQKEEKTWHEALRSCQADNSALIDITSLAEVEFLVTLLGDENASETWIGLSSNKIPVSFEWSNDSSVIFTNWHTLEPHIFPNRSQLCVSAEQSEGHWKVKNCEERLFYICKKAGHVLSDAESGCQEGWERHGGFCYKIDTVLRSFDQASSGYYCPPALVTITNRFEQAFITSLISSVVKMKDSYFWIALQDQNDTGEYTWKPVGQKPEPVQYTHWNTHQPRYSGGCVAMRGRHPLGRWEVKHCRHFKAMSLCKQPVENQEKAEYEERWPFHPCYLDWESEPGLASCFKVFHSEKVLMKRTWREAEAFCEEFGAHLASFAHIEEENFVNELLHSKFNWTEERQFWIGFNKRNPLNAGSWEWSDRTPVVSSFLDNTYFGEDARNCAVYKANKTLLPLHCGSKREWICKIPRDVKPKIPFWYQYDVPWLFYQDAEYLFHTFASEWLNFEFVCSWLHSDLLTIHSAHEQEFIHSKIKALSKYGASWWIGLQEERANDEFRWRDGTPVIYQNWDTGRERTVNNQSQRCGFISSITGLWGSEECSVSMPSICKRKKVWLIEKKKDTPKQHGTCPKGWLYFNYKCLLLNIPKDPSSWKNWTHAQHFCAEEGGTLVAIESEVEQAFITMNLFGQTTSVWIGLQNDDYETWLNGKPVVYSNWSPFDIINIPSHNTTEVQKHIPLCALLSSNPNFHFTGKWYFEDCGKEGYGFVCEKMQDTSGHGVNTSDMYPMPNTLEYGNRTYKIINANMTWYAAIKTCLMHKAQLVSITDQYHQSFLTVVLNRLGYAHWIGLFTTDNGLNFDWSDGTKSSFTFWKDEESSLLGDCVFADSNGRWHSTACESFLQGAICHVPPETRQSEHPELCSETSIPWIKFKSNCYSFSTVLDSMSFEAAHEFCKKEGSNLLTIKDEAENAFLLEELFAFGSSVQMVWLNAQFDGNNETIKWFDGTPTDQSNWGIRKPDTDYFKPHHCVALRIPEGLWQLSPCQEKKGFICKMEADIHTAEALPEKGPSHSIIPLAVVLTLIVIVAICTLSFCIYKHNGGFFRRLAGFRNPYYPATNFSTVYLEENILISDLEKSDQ

B1: 54D11抗PLA2R重组兔单克隆抗体 (antibody, V domains shown)
VH: QSVEESGGRLVTPGTPLTLTCTVSGIDLSSHGMGWVRQAPGKGLEWIGYINTGGSAYYASWAKGRFTISRTSTTVDLKMTSLTTEDTATYFCARGDPDYTSGFPIWGPGTLVTVSS
VL: AFEMTQTPASVEVAVGGTVTIKCQASESISSWLAWYQQKPGQPPKLLIYRASTLASGVPSRFSGSGSGTQFTLTISGVECADAATYYCQQGYSSHNIDNIFGGGTEVVVR
notes: also called 54D11抗PLA2R单克隆抗体; 54D11克隆的PLA2R重组兔单克隆抗体
B1: binds.
